Entries after “also recorded” stand apart in the source; their conditions may differ.
Key:
cortical neurons = test: c-fos induction, Fos in situ enzyme-linked immunoassay in cortical cultures; assay type: cell-based, mouse; details: C-AgΔ20 at 50 pM or 5 nM; C-Ag15 up to fivefold above saturation for C-Ag20z0/8
Protocol: (§1) Mouse cortical cultures were prepared from newborn or 1-d-old ICR strain mice (Harlan) as described previously (Hilgenberg et al., 1999). For the first 24 h after plating, cells were maintained in neural basal medium (NBM) plus B27 supplements (Invitrogen), and in nonneuronal cell-conditioned NBM (cNBM) plus B27 thereafter, at 37° C. in humidified 5% CO2 atmosphere. To further reduce proliferation of nonneuronal cells, cultures on glass coverslips used for histology were treated with 5 μM 5-fluoro-2-deoxyuridine (Sigma-Aldrich) 3-4 d after plating. Hippocampal and cerebellar cultures were prepared in a similar manner. Experiments were performed on 10-14-d-old cultures. Agrin-deficient neuron cultures were prepared from cortices of embryonic d 18-19 fetuses resulting from matings between mice heterozygous for a mutation in the agrin gene (Gautam et al., 1996). Cultures were prepared and genotyped as described previously (Li et al., 1999), and were maintained as above.
(§2) Fos expression in cortical cultures was measured by in situ enzyme-linked immunoassay (Hilgenberg et al., 1999). In brief, 11-14-d-old neuronal cultures were treated for 10 min with agrin or other agent diluted in NBM or PBS, then washed in cNBM and returned to the incubator for 2 h. […] The level of Fos expression was determined by monitoring conversion of p-nitrophenyl phosphate to a soluble yellow reaction product at 405 nm.

hippocampal neurons = test: Fos expression in hippocampal neurons; assay type: cell-based, mouse; details: 1 nM C-Ag15 with 50 pM C-Ag95z8
Protocol: as §1
as §2, with “nm. […]” for “nm.”

cerebellar neurons = test: Fos expression in cerebellar neurons; assay type: cell-based, mouse; details: 1 nM C-Ag15 with 50 pM C-Ag95z8
Protocol: as §1
as §2, with “nm. […]” for “nm.”

chick myotubes = test: AChR clustering assay; assay type: cell-based; details: 1 nM C-Ag15 with 50 pM C-Ag95z8 overnight
agrin-deficient neurons = test: Rescue of glutamate-induced Fos expression in agrin-deficient neuron cultures; assay type: cell-based, mouse
Protocol: FIG. 6 is a graph showing that the 20-kD COOH-terminal region of agrin is the minimal fragment sufficient to rescue an agrin-deficient phenotype. (A) 10-d-old wild-type (filled bars) or agrin-deficient (open bars) cultures were grown for 2 d in media supplemented to 5 nM with the indicated agrin fragment. Cultures were challenged for 5 min with 100 μM glutamate as described previously (Hilgenberg et al., 2002), and the levels of Fos expression were determined. Data were normalized to levels of glutamate-induced Fos expression in mocktreated wild-type cultures. Compared with mock, glutamate responses of homozygous agrin-deficient neurons were rescued to near wildtype levels by either the long C-Ag95z8/0 or short C-Ag20z8/0 fragments (***, P≦0.0005; **, P≦0.002; *, P≦0.02; paired t test). (B) To test the ability of C-Ag15 to antagonize agrin action, 10-d-old agrin-deficient neurons were maintained for 2 d in the presence of 5 nM C-Ag95z0 alone or in combination with 10 nM C-Ag15, and neuronal responses to glutamate were determined as above. […]
Fos expression in cortical cultures was measured by in situ enzyme-linked immunoassay (Hilgenberg et al., 1999). […] The level of Fos expression was determined by monitoring conversion of p-nitrophenyl phosphate to a soluble yellow reaction product at 405 nm.

α3Na+/K+-ATPase = α3Na+/K+-ATPase (Mus musculus, UniProt Q6PIC6); test: Na+ imaging (SBFI-AM) of cultured cortical cells; assay type: cell-based
[1] = biological target: rat α3 subunit of the Na+/K+-ATPase (Rattus norvegicus, UniProt P06687); test: Na+ imaging of non-neuronal cells transfected with pRcα3; assay type: cell-based
cardiac myocytes [2] = test: Spontaneous contraction frequency of cultured cardiac myocytes; assay type: cell-based, mouse
Protocol: FIG. 17. Cardiac myocyte contraction is agrin dependent. Cardiac myocytes were prepared from hearts of individual embryos produced by heterozygous pairings. The genotype of cultures was determined by PCR analysis of tissue samples from each embryo. Myocytes were maintained in 199 medium containing 10% FCS as described (Mitcheson et al., 1998). At 5 days in culture, the frequency of spontaneous contractions was determined by counting contractions in myocytes from 5 random fields at 300× magnification for 30 seconds. Contraction frequency is dependent on Agrn gene dosage such that Agrn−/−>Agrn+/−>Agrn+/+. Addition of C-Ag208 to the growth medium rescues the Agrn mutant phenotype whereas C-Ag15 increased the contraction frequency of wild type myocytes to a level similar to Agrn−/− cells. Bars show mean±SEM for a minimum of 2 independent platings from 3 embryos, except for Agrn+/−treated with C-Ag208, which was a single plating of 2 embryos. All data were collected blind with respect to genotype and agrin treatment. *** p≦0.001. ANOVA with Bonferroni post-hoc pair-wise comparison.
Quantitative studies confirmed and extended these observations by showing that the frequency of myocyte contraction is dependent on agrin gene dose: Agrn−/− myocyte contraction frequency is about 2-fold higher and Agrn+/− 1.5-fold higher than Agrn+/+ myocytes (FIG. 17). To learn whether the effect of the Agrn mutation on myocyte contraction is a direct result of the loss of agrin expression the effects of growing the cells in media supplemented with C-Ag208, an active agrin fragment, or C-Ag15, the agrin antagonist was next examined.

cardiac myocytes [3] = test: Ca2+ (Fura-2) and Na+ imaging of cultured cardiac myocytes; details: 10 fold excess of C-Ag15

B1: C-Ag15: 15-kD COOH-terminal fragment of agrin created by deleting 37 amino acids from the NH2 terminus of C-Ag20, SEQ. ID NO. 3 (protein)
chain: MDPWIGKAAERADYMALAIVDGHLQLSYDLASQPVVLRSTVKVNTNRWLRVRAHREHREGSLQVGNEAPVTSSSPLGATQLDTDGALWLGGLQKLPVGQPLPKAYGTGFVGCLRNVVGHRQLHLLEDAVTKPELRPCPTLNSKLGPEQKLISEEDLNSAVDHHHHHH
modifications: Synthetically produced sequence
For B1, which “effect of fragment alone on Fos expression” value (cortical neurons) is on record?
Its value is “no effect”.

What about the “effect on C-Ag95z8-induced Fos expression” value (hippocampal neurons) of the same molecule?
The value was “completely inhibited”.

And the “effect on C-Ag95z8-induced Fos expression” value (cerebellar neurons)?
The value was “completely inhibited”.

What about the “effect on AChR clustering activity of C-Ag95z8” value (chick myotubes) of the same molecule?
The value was “no effect”.

What about the “rescue by C-Ag95z0 blocked” value (agrin-deficient neurons; 10 nM C-Ag15 with 5 nM C-Ag95z0 in growth medium) of the same molecule?
The value was 54%.

What about the “effect on glutamate-induced expression of c-fos” value (agrin-deficient neurons; up to 10 nM, wild-type or heterozygous agrin-deficient neurons) of the same molecule?
The value was “no effect”.

And the “effect on Na+ increase induced by active agrin fragments” value (α3Na+/K+-ATPase)?
Its value is “blocked”.

And the “effect on ouabain-induced increase in neuronal Na+” value (α3Na+/K+-ATPase)?
The value was “blocked; also recorded: significantly reduced”.

What about the “neuronal intracellular Na+” value (α3Na+/K+-ATPase) of the same molecule?
Its value is “no significant effect”.

What about the “antagonism of active agrin fragments” value [1] of the same molecule?
The value was “effective antagonist”.

What about the “intracellular Na+ in cells expressing the α3 subunit” value [1] of the same molecule?
Its value is “unaffected”.

And the contraction frequency (cardiac myocytes [2]; Agrn+/+ and Agrn+/− myocytes grown in fragment)?
The contraction frequency was “significantly increased”.

What about the contraction frequency (cardiac myocytes [2]; Agrn−/− cells grown in fragment) of the same molecule?
The contraction frequency was “no effect”.

And the “antagonism of C-Ag208 response” value (cardiac myocytes [3])?
The value was “effective agrin antagonist; also recorded: effectively blocks”.
